Reference: patent US9486491 (dated 2016)
Non-standard residues stand in square brackets, D forms with d. No end group written: not given here. Hyp = O=C(O)[C@@H]1C[C@@H](O)CN1

These binders were tested against DPP-4 (UniProt P27487) (assay: other, DPP-4 inhibition).
Chain of DPP-4 (P27487 29-766): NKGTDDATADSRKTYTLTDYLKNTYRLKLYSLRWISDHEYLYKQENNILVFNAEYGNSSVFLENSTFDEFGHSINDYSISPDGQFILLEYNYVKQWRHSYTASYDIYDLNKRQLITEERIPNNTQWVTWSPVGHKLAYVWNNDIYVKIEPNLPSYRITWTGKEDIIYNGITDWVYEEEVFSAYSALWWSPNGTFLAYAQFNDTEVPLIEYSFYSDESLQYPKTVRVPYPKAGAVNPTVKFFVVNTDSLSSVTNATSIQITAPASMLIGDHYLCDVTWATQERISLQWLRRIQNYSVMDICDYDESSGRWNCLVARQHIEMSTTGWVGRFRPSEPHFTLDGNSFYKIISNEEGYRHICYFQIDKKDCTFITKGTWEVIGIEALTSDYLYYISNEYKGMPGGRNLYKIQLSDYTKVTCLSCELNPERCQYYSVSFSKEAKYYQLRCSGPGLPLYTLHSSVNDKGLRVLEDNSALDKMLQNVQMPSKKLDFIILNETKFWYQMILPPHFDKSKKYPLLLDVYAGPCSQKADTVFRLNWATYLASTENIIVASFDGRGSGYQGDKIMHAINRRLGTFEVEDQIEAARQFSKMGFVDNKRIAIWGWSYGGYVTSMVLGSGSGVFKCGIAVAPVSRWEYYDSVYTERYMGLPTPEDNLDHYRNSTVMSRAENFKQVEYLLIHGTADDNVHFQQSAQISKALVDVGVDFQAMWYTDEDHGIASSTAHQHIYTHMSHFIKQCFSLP

First: GPIGPV [GlyProIleGlyProVal]
Second: APG [AlaProGly]
The IC50 of the first is 1.6-fold lower: 5 µg/mL for the first, 8 µg/mL for the second.

Compared with Ile-[Hyp]-Gly [IleHypGly], Leu-[Hyp]-Gly [LeuHypGly] is 3.8-fold lower in IC50: 150 µg/mL for the first, 39 µg/mL for the second.

First: L[Hyp]GPA [LeuHypGlyProAla]
Second: Ala-[Hyp]-Gly [AlaHypGly]
The IC50 of the first is 6.3-fold lower: 390 µg/mL for the first, 2450 µg/mL for the second.

Compared with GPV [GlyProVal], LPG [LeuProGly] is 7.1-fold lower in IC50: 100 µg/mL for the first, 14 µg/mL for the second.

GPQ [GlyProGln] and GPA [GlyProAla] are within 1.5-fold of each other in IC50: 93 µg/mL for the first, 71 µg/mL for the second.

With GPS [GlyProSer] the IC50 was 142 µg/mL.
